Assay results: US20260209386A1 (MYTHIC THERAPEUTICS, published 2026)
Numbering of substitutions follows the chain as printed.

T1: Human PTK7 Protein, His Tag, Acro Biosystems (human, UniProt Q13308 31-704)
T1 construct: Bought protein; also called CCK4; not shown: His tag
T1 sequence: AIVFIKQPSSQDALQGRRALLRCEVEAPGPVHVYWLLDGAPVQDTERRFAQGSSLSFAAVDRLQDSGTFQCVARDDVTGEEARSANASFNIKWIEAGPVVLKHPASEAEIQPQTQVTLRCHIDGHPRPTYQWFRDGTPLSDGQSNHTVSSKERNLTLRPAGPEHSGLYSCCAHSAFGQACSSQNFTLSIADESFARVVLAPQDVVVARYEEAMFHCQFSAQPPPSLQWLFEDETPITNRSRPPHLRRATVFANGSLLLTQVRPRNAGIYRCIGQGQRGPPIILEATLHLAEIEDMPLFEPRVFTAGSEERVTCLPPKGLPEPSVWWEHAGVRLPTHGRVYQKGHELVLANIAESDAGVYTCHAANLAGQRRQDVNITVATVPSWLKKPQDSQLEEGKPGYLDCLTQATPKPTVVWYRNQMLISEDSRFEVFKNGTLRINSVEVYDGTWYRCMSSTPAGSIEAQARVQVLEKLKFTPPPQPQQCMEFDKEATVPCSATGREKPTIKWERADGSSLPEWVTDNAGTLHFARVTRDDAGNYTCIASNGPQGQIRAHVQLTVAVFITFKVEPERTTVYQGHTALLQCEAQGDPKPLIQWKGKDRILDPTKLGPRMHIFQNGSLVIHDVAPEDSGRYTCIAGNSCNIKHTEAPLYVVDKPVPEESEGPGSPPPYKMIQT

T2: Human PTK7 Protein, His Tag, Acro Biosystems (human, UniProt Q13308 31-704)
T2 construct: Bought recombinant protein; also called CCK4; not shown: His tag
T2 sequence: T1 sequence

T3: Human PTK7 Protein, His Tag (Acro Biosystems) (human, UniProt Q13308 31-704)
T3 construct: Bought His-tagged recombinant human PTK7; also called CCK4; Tyrosine-protein kinase-like 7
T3 sequence: T1 sequence

B1: MYT11248 (antibody, V domains shown)
VH: EVQLVESGGGLVQPGGSLRLSCTASGIDLSSYVMGWVRQAPGKGLEWVGYIYGGGGTYYATWARGRFTISRDTSKNTVYLQMNSLRAEDTAVYFCARAAADFYFNLWGQGTLVTVSS
VL: EIVMTQSPSTLSASVGDRVIITCQASQSISSYLAWYQQKPGKAPKLLIYDISDLASGVPSRFSGSGSGAEFTLTISSLQPDDFATYYCQSYYWISNSGHAFGQGTKLTVL
notes: LC variant of MYT9460, sub at LCV pos 99 (L3 11)
B2: MYT11253 (antibody, V domains shown)
VH: B1 VH
VL: B1 VL with N96A, H99A
notes: LC variant of MYT9460, Ala sub at LCV pos 96 (L3 08)
B3: MYT11249 (antibody, V domains shown)
VH: B1 VH
VL: B1 VL with H99A, A100H
notes: LC variant of MYT9460, sub at LCV pos 100 (L3 12)
B4: MYT11117 (antibody, V domains shown)
VH: EVQLVESGGGLVQPGGSLRLSCTASGFSLSTYAMSWVRQAPGKGLEWVGMIYINHNTYYASWAKGRFTISRDTSKNTVYLQMNSLRAEDTAVYFCARDIGISYYIGVSLWGQGTLVTVSS
VL: EIVMTQSPSTLSASVGDRVIITCQASQSIGTRLSWYQQKPGKAPKLLIYGASKLATGVPSRFSGSGSGAEFTLTISSLQPDDFATYYCLGEYSYTTTDGIAFGQGTKLTVL
notes: MYT9412 HC variant
B5: MYT11103 (antibody, V domains shown)
VH: B4 VH with F27H, H55D
VL: B4 VL
notes: MYT9412 HC variant
B6: MYT11107 (antibody, V domains shown)
VH: B4 VH with T31H, H55D
VL: B4 VL
notes: MYT9412 HC variant
B7: MYT11108 (antibody, V domains shown)
VH: B4 VH with Y32H, H55D
VL: B4 VL
notes: MYT9412 HC variant
B8: MYT11106 (antibody, V domains shown)
VH: B4 VH with S30H, H55D
VL: B4 VL
notes: MYT9412 HC variant
B9: MYT11115 (antibody, V domains shown)
VH: B4 VH with I53H, H55D
VL: B4 VL
notes: MYT9412 HC variant
B10: MYT11105 (antibody, V domains shown)
VH: B4 VH with L29H, H55D
VL: B4 VL
notes: MYT9412 HC variant
B11: MYT10988 (antibody, V domains shown)
VH: EVQLVESGGGLVQPGGSLRLSCTASGFSLSSYAMGWVRQAPGKGLEWVGFINAGGNTYYANWAKGRFTISRDTSKNTVYLQMNSLRAEDTAVYFCARRYSRASGWYHLWGQGTLVTVSS
VL: EIVMTQSPSTLSASVGDRVIITCQASQSISSYLAWYQQKPGKAPKLLIYAASTLASGVPSRFSGSGSGAEFTLTISSLQPDDFATYYCQSYSYSSGIDYGDVFGQGTKLTVL
notes: MYT9359 HC variant; captured on anti-human Fc sensor
B12: MYT10992 (antibody, V domains shown)
VH: B11 VH with H107D
VL: B11 VL with Q24H
notes: MYT9359 LC variant; captured on anti-human Fc sensor
B13: MYT10977 (antibody, V domains shown)
VH: B11 VH with A96H, H107D
VL: B11 VL
notes: as for B11
B14: MYT10971 (antibody, V domains shown)
VH: B11 VH with A60H, H107D
VL: B11 VL
notes: as for B11
B15: MYT10953 (antibody, V domains shown)
VH: B11 VH with S28H, H107D
VL: B11 VL
notes: as for B11
B16: MYT10995 (antibody, V domains shown)
VH: B11 VH with H107D
VL: B11 VL with Q27H
notes: as for B12
B17: MYT11009 (antibody, V domains shown)
VH: B11 VH with H107D
VL: B11 VL with S56H
notes: as for B12
B18: MYT10987 (antibody, V domains shown)
VH: B11 VH with Y106H, H107D
VL: B11 VL
notes: as for B11
B19: MYT10975 (antibody, V domains shown)
VH: B11 VH with K64H, H107D
VL: B11 VL
notes: as for B11
B20: MYT10954 (antibody, V domains shown)
VH: B11 VH with L29H, H107D
VL: B11 VL
notes: as for B11
B21: MYT10968 (antibody, V domains shown)
VH: B11 VH with T57H, H107D
VL: B11 VL
notes: as for B11
B22: MYT10967 (antibody, V domains shown)
VH: B11 VH with N56H, H107D
VL: B11 VL
notes: as for B11
B23: MYT11008 (antibody, V domains shown)
VH: B11 VH with H107D
VL: B11 VL with A55H
notes: as for B12
B24: MYT10973 (antibody, V domains shown)
VH: B11 VH with W62H, H107D
VL: B11 VL
notes: as for B11
B25: MYT10956 (antibody, V domains shown)
VH: B11 VH with S31H, H107D
VL: B11 VL
notes: as for B11
B26: MYT10994 (antibody, V domains shown)
VH: B11 VH with H107D
VL: B11 VL with S26H
notes: as for B12
B27: MYT11015 (antibody, V domains shown)
VH: B11 VH with H107D
VL: B11 VL with S94H
notes: as for B12
B28: MYT11016 (antibody, V domains shown)
VH: B11 VH with H107D
VL: B11 VL with S95H
notes: as for B12
B29: MYT10976 (antibody, V domains shown)
VH: B11 VH with G65H, H107D
VL: B11 VL
notes: as for B11
B30: MYT10996 (antibody, V domains shown)
VH: B11 VH with H107D
VL: B11 VL with S28H
notes: as for B12
B31: MYT10965 (antibody, V domains shown)
VH: B11 VH with G54H, H107D
VL: B11 VL
notes: as for B11
B32: MYT11019 (antibody, V domains shown)
VH: B11 VH with H107D
VL: B11 VL with D98H
notes: as for B12
B33: MYT10972 (antibody, V domains shown)
VH: B11 VH with N61H, H107D
VL: B11 VL
notes: as for B11
B34: MYT11007 (antibody, V domains shown)
VH: B11 VH with H107D
VL: B11 VL with L54H
notes: as for B12
B35: MYT11020 (antibody, V domains shown)
VH: B11 VH with H107D
VL: B11 VL with Y99H
notes: as for B12

target: T1, Human PTK7 Protein, His Tag, Acro …; assay: BLI (Octet), antibody on anti-human Fc sensor, 50 nM PTK7, dissociation at pH 7.4 or 5.4; 1 = pH dependent binding relative to parent

Binding result, binds:
B1, B2, B3

target: T2, Human PTK7 Protein, His Tag, Acro …; assay: BLI, anti-human Fc capture, 50 nM PTK7; 1 = pH dependent binding relative to parent

Binding result, binds:
B4, B5, B6, B7, B8, B9, B10

target: T3, Human PTK7 Protein, His Tag (Acro …); assay: BLI (Octet), antibody on anti-human Fc sensor, 50 nM PTK7; 2 = substantially similar binding

Binding result, binds:
B11, B12, B13, B14, B15, B16, B17, B18, B19, B20, B21, B22, B23, B24, B25, B26, B27, B28, B29, B30, B31, B32, B33, B34, B35
